The text below walks through data of patent US20250144179A1, “PEPTIDE HORMONE TO PREVENT OR TREAT VASOSPASM, BRAIN INJURY OR CEREBRAL EDEMA” (UNIVERSITY OF FLORIDA RESEARCH FOUNDATION, INCORPORATED, priority 2022, published 2025).

One series relates to eNOS^−/− mice, SAH model. The series can be described thus: Sensorimotor deficits (corner test) after SAH in eNOS knockout mice. It is filed as in vivo, mouse. An excerpt: All animal experiments were approved by IACUC (Institutional Animal Care and Use Committee) and performed in accordance with ARRIVE (Animal Research: Reporting of In Vivo Experiments) guidelines. All animals were 12-15-week-old females and were housed in pathogen-free housing with ad libitum food and water and 12-h light/dark cycling. Wild-type C57B1/6 mice were received from Charles River Labs (Wilmington, Mass.) and eNOS knockout mice were obtained from The Jackson Laboratory (Bar Harbor, Maine). eNOS knockout breeding pairs were genotyped prior to breeding and F1 progeny used for all experiments. The following primers were used for genotyping: eNOS knockout (Nos3^−/−): F-5′-[…]-3′, R-5′-[…]-3′. All animals underwent twice daily monitoring from institutional animal care services staff and/or investigators. Mice were randomized to treatment groups prior to surgical procedures.
Synthetic adropin^34-76 peptide was supplied from Bachem (Bubendorf, Switzerland) and diluted in 0.1% BSA in saline. 0.1% BSA in saline was used as vehicle control for all experiments. Adropin (450 nmol/kg) or an equivalent volume of vehicle was delivered via intraperitoneal injection 15 minutes post-SAH. For experiments ending at 24 hours post-SAH, an identical dose of adropin/vehicle was given again 12 hours later. For experiments ending 7 days post-SAH, adropin/vehicle was given again on days 1, 3 & 5 post-SAH. […]

A short description of series [1]: Quantitative serum assays for common markers of liver toxicity. The format is in vivo, mouse.

Consider “adropin (CHSRSADVDSLSESSPNSSPGPCPEKAPPPQKPSHEGSYLLQP) [Synthetic adropin^34-76 peptide from Bachem]”, for which the “sensorimotor deficits (corner test turn preference)” value with eNOS^−/− mice, SAH model is “adropin also had no effect on sensorimotor deficits”. For the same substance, in series [1] (I.P. injection of adropin), the “serum concentration of alanine aminotransferase (ALT)” value was “did not cause elevations”, the “serum concentration of aspartate aminotransferase (AST)” value is “did not cause elevations”, the “serum concentration of fasting glucose” value is reported as “did not cause elevations” and the “serum concentration of total bilirubin” value was “did not cause elevations”. Further, the “common markers of liver toxicity” value in series [1] (adropin vs vehicle) is on record as “adropin had no effect compared to vehicle treatment”.
